Laboratory results published in patent publication US20100068145A1.

Target: Collagen I
Experiment: cell-based or functional assay

B1: GPVI-CD133 construct (bispecific fusion protein: soluble GPVI-Fc chemically conjugated via SPDP to the CD133-reactive monoclonal antibody W6B3C1) (protein, part only; not given: Fc and anti-CD133 antibody chains, human, not shown: a dimerising Fc or GST)
chain, part: QSGPLPKPSLQALPSSLVPLEKPVTLRCQGPPGVDLYRLEKLSSSRYQDQAVLFIPAMKRSLAGRYRCSYQNGSLWSLPSDQLELVATGVFAKPSLSAQPGPAVSSGGDVTLQCQTRYGFDQFALYKEGDPAPYKNPERWYRASFPIITVTAAHSGTYRCYSFSSRDPYLWSAPSDPLELVVTGTSVTPSRLPTEPPSSVAEFSEATAELTVSFTNKVFTTETSRSITTSPKESDSPAGPARQYYTK
modifications: amino groups modified with SPDP (N-succinimidyl 3-(2-pyridyldithio)-propionate), reduced with DTT and conjugated to the SPDP-modified CD133 antibody
- adhesion of EPCs (CD34+ cells) to immobilized collagen I, flow chamber model (2,000 sec^-1), fold against collagen alone: 10 fold
- adhesion of EPCs (CD34+ cells) to immobilized collagen I, static adhesion assay, fold against collagen alone: 5 fold
